{"source": "paper PMC5615199", "about": "“Structural Basis for EarP-Mediated Arginine Glycosylation of Translation Elongation Factor EF-P” (mBio, 2017)", "molecules": {"B1": {"name": "EF-PPpu (translation elongation factor EF-P): coproduction with inactive D13AEarP (protein)", "parent chain": "MKTGKELKPGTVLRIDNDPWLVQKAEFTKSGRNSAIMKTKLKNLLTGYKTETVYGADDKLDDVILDRKEATLSFINGDEYTFMDTTDYTMYELNAEDIEAVLPYIEEGMEDVCEAVFFEGRLVSVELPTTISRKVVYTENAARGDTSGKVMKPAKLANGTEISVADFIQIDEWIDIDTRDNSFKGRSKK"}, "B2": {"name": "EF-PPpu (translation elongation factor EF-P): coproduction with inactive D17AEarP (protein)", "parent chain": "MKTGKELKPGTVLRIDNDPWLVQKAEFTKSGRNSAIMKTKLKNLLTGYKTETVYGADDKLDDVILDRKEATLSFINGDEYTFMDTTDYTMYELNAEDIEAVLPYIEEGMEDVCEAVFFEGRLVSVELPTTISRKVVYTENAARGDTSGKVMKPAKLANGTEISVADFIQIDEWIDIDTRDNSFKGRSKK"}, "B3": {"name": "EF-PPpu (translation elongation factor EF-P): coproduction with inactive E273AEarP (protein)", "parent chain": "MKTGKELKPGTVLRIDNDPWLVQKAEFTKSGRNSAIMKTKLKNLLTGYKTETVYGADDKLDDVILDRKEATLSFINGDEYTFMDTTDYTMYELNAEDIEAVLPYIEEGMEDVCEAVFFEGRLVSVELPTTISRKVVYTENAARGDTSGKVMKPAKLANGTEISVADFIQIDEWIDIDTRDNSFKGRSKK"}, "B4": {"name": "EarPPpu (EF-P-arginine rhamnosyltransferase EarP) (Pseudomonas putida KT2440) (protein)", "chain": "MKATWDIFCSVVDNYGDIGVTWRLARQLVAEHGLAVRLWVDDLNAFTPMCPGADATAAQQWQHGVDVRHWPAAWLPVAPADVVIGAFACQLPAAYVEAMRARPQPPLWLNLEYLSAEDWVEGCHGLPSPQPNGLRKVFFFPGFTDKTGGLLREGSLLARRDGFQQSAEARRAFLQGLGVDLVPGALLISLFAYENPQLGNWLDALATADQPCHLLVPQGRVVAGLSQWLGEGPLHVGDVRTRGALTVQVLPFVSQDDFDRLLWSCDFNAVRGEDSFVRAQWAGQPMLWHIYVQDENAHWEKLEAFLAHYRCGLSDDADAALLGLWRAWNMDFDMGQAWRAARQHWPELQQHARLWGARQAAQPDLATALVHFYRNSL", "notes": "full-length (residues 1 to 377), 43 kDa, His6-tagged (C-terminal from pBAD33-earPPpu, N-terminal from pACYC-DUET for crystallization), expressed in E. coli; monomer"}, "B5": {"name": "unmodified EF-PPpu, purified, tag-free (natural protein, Pseudomonas putida, UniProt Q88LS0 1-189, looked up)", "chain": "MKTGKELKPGTVLRIDNDPWLVQKAEFTKSGRNSAIMKTKLKNLLTGYKTETVYGADDKLDDVILDRKEATLSFINGDEYTFMDTTDYTMYELNAEDIEAVLPYIEEGMEDVCEAVFFEGRLVSVELPTTISRKVVYTENAARGDTSGKVMKPAKLANGTEISVADFIQIDEWIDIDTRDNSFKGRSKK", "notes": "translation elongation factor EF-P, Pseudomonas putida; 15N-labelled for the NMR titration (grown in M9 minimal medium); source: E. coli BL21(DE3) (pET-SUMO-efpPpu), purified (Ni-NTA, tag removed with His6-Ulp1)"}, "B6": {"name": "rhamnosylated EF-PPpu (EF-P^Rha), purified (natural protein, Pseudomonas putida, UniProt Q88LS0 1-189, looked up)", "chain": "MKTGKELKPGTVLRIDNDPWLVQKAEFTKSGRNSAIMKTKLKNLLTGYKTETVYGADDKLDDVILDRKEATLSFINGDEYTFMDTTDYTMYELNAEDIEAVLPYIEEGMEDVCEAVFFEGRLVSVELPTTISRKVVYTENAARGDTSGKVMKPAKLANGTEISVADFIQIDEWIDIDTRDNSFKGRSKK", "modifications": "rhamnosyl-arginine at R32", "notes": "translation elongation factor EF-P, Pseudomonas putida, rhamnosylated on arginine 32; 15N-labelled for the NMR titration; also called modified EF-P; source: E. coli, cooverproduced with His6-tagged EarPPpu, purified"}}, "key": {"[1]": {"test_system": "T1, Cc1cn([C@H]2C[C@H](O)[C@@H](COP(=O)(O)OP(=O)(O)O[C@H]3O[C@@H](C)[C@H](O)[C@@H](O)[C@H]3O)O2)c(=O)[nH]c1=O", "T1 construct": "full-length (residues 1 to 377), 43 kDa, His6-tagged (C-terminal from pBAD33-earPPpu, N-terminal from pACYC-DUET for crystallization), expressed in E. coli; monomer", "test": "Western blot quantification (anti-Arg-Rha) of EF-P rhamnosylation", "type": "biochemical, Pseudomonas putida", "details": "co-substrate unmodified P. putida EF-P 2.5 µM, 100 mM NaPi pH 7.6, 30°C"}, "[2]": {"test_system": "T1, Cc1cn([C@H]2C[C@H](O)[C@@H](COP(=O)(O)OP(=O)(O)O[C@H]3O[C@@H](C)[C@H](O)[C@@H](O)[C@H]3O)O2)c(=O)[nH]c1=O", "test": "Western blot quantification (anti-Arg-Rha) of EF-P rhamnosylation", "type": "biochemical, Pseudomonas putida", "details": "co-substrate unmodified P. putida EF-P 2.5 µM, 0.5 µM EarP, 100 mM NaPi pH 7.6, 30°C", "description": "Western blot quantification (anti-Arg-Rha) of EF-P rhamnosylation on EarPPpu (EF-P-arginine rhamnosyltransferase EarP) | when we measured the kinetics of the F191A^EarP and Y193A^EarP variants"}, "[3]": {"test": "PcadBA::lacZ β-galactosidase, E. coli Δefp", "details": "glycan lost; control: EF-PPpu coproduced with wild-type EarPPpu"}, "[4]": {"substrate": "Cc1cn([C@H]2C[C@H](O)[C@@H](COP(=O)(O)OP(=O)(O)O[C@H]3O[C@@H](C)[C@H](O)[C@@H](O)[C@H]3O)O2)c(=O)[nH]c1=O", "test": "Western blot quantification (anti-Arg-Rha) of EF-P rhamnosylation", "type": "biochemical, Pseudomonas putida", "details": "co-substrate unmodified P. putida EF-P 2.5 µM, 0.1 µM EarP, 100 mM NaPi pH 7.6, 30°C, 20 s"}, "[5]": {"target": "T2, EarPPpu, EarP from Pseudomonas putida KT2440, purified His6-tagged protein (Pseudomonas putida KT2440, UniProt Q88LS1 2-377)", "T2 construct": "EarP, Pseudomonas putida KT2440, 43 kDa; domains are told as aa 1-153, 184-361 and 362-377; also called WT^EarP; source: E. coli LMG194 (pBAD33-earPPpu) or E. coli BL21(DE3) (pACYC-DUET-earPPpu), purified (Ni-NTA)", "T2 sequence": "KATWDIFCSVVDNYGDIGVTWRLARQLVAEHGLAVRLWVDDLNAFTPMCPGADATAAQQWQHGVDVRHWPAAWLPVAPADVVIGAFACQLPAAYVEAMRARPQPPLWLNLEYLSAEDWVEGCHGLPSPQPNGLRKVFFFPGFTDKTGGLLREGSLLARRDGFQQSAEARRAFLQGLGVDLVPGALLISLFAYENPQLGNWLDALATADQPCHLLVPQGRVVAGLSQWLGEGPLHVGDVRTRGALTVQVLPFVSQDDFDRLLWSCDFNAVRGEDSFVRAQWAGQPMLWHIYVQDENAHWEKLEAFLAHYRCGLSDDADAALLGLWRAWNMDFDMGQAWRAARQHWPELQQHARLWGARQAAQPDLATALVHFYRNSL", "test": "NMR titration; 15N-labelled EF-P (150 µM unmodified or 41 µM rhamnosylated) titrated with unlabelled EarP to a 1:2 EF-P/EarP molar ratio, 1H-15N HSQC, 298 K, 100 mM NaPi pH 7.6, 50 mM NaCl, 5 mM DTT", "details": "both partners purified"}, "[6]": {"details": "lowest-mass SEC fraction of a partly unfolded, aggregating variant"}}, "data": [{"molecule": "EarPPpu (EF-P-arginine rhamnosyltransferase EarP) (Pseudomonas putida KT2440; F252A)", "values": [{"measurement": "Km", "setting": "[1]", "value": 3400, "unit": "µM"}]}, {"molecule": "EarPPpu (EF-P-arginine rhamnosyltransferase EarP) (Pseudomonas putida KT2440; Y193A)", "values": [{"measurement": "Km", "setting": "[2]", "value": 760, "unit": "µM"}, {"measurement": "kcat", "setting": "[2]", "value": 0.00017, "unit": "s⁻¹"}]}, {"molecule": "EarPPpu (EF-P-arginine rhamnosyltransferase EarP) (Pseudomonas putida KT2440; F191A)", "values": [{"measurement": "Km", "setting": "[2]", "value": 810, "unit": "µM"}, {"measurement": "kcat", "setting": "[2]", "value": 0.00017, "unit": "s⁻¹"}]}, {"molecule": "EarPPpu (EF-P-arginine rhamnosyltransferase EarP) (Pseudomonas putida KT2440; D274A)", "values": [{"measurement": "Km", "setting": "[1]; [6]", "value": 206, "unit": "µM"}, {"measurement": "kcat", "setting": "[1]; [6]", "value": 0.0123, "unit": "s⁻¹"}]}, {"molecule": "B1", "values": [{"measurement": "other: EF-P translational rescue activity (PcadBA activation)", "setting": "[3]", "value": "abolishes"}]}, {"molecule": "B2", "values": [{"measurement": "other: EF-P translational rescue activity (PcadBA activation)", "setting": "[3]", "value": "abolishes"}]}, {"molecule": "B3", "values": [{"measurement": "other: EF-P translational rescue activity (PcadBA activation)", "setting": "[3]", "value": "abolishes"}]}, {"molecule": "B4", "values": [{"measurement": "Km", "setting": "[4]", "value": 53, "unit": "µM"}, {"measurement": "kcat", "setting": "[4]", "value": 0.583, "unit": "s⁻¹"}]}, {"molecule": "B5", "values": [{"measurement": "binding result", "setting": "[5]", "value": "binds"}]}, {"molecule": "B6", "values": [{"measurement": "binding result", "setting": "[5]", "value": "binds"}]}]}
